In patent publication US20190359693A1:
Substitutions are numbered along the chain they refer to.

B1: SD3049 (VHH)
VHH: EVQLVESGGGLVQPGGSLRLSCAASGLSLDTYAMSWFRQAPGKEREGVSCISSGHGMTYYADSVKGRFTISRDNSKNTLYLQMNSLQPEDTARYYCATESRYYCSDNWPAPQRYIYWGQGTQVTVSS
B2: SD3074 (VHH)
VHH: B1 VHH with A24I, M34V, S35G, V48I, S49T, R72T, Q87R, P88A, R93V, Q122L
B3: SD3103 (VHH)
VHH: B1 VHH with A24I, M34V, S35G, M57D, R72T, Q87R, P88A, R93V, Q122L
B4: SD3072 (VHH)
VHH: B1 VHH with M34V, S35G, V48I, S49T, I70V, R72T, Q87R, P88A, R93V, Q122L
B5: SD3054 (VHH)
VHH: B1 VHH with V48I, S49T, M57I
B6: SD3104 (VHH)
VHH: B1 VHH with A24I, M34V, S35G, M57N, R72T, Q87R, P88A, R93V, Q122L
B7: SD3053 (VHH)
VHH: B1 VHH with M57F
B8: SD3100 (VHH)
VHH: B1 VHH with A24I, M34V, S35G, M57A, R72T, Q87R, P88A, R93V, Q122L
B9: SD3051 (VHH)
VHH: B1 VHH with M57I
B10: SD3073 (VHH)
VHH: B1 VHH with A24I, M34V, S35G, I70V, R72T, Q87R, P88A, R93V, Q122L
B11: SD3052 (VHH)
VHH: B1 VHH with M57L
B12: SD3055 (VHH)
VHH: B1 VHH with V48I, S49T, M57L
B13: SD3101 (VHH)
VHH: B1 VHH with A24I, M34V, S35G, M57S, R72T, Q87R, P88A, R93V, Q122L
B14: SD3056 (VHH)
VHH: B1 VHH with V48I, S49T, M57F
B15: SD3102 (VHH)
VHH: B1 VHH with A24I, M34V, S35G, M57Q, R72T, Q87R, P88A, R93V, Q122L
B16: SD3050 (VHH)
VHH: B1 VHH with V48I, S49T
B17: SD3075 (VHH)
VHH: B1 VHH with M34V, S35G, M57I, R72T, Q87R, P88A, R93V, Q122L
B18: SD3076 (VHH)
VHH: B1 VHH with M34V, S35G, M57L, R72T, Q87R, P88A, R93V, Q122L
B19: SD3001 (VHH)
VHH: EVQLVESGGGLVQPGGSLRLSCAASGFTFSTSWMSWLRQAPGKGLEWVSVINTDGGTYYADSVKGRFTISRDNSKNTLYLQMNSLRAEDTAVYYCAKDWGGPEPTRGQGTQVTVSS
B20: SD3003 (VHH)
VHH: B19 VHH with N76D
B21: SD3004 (VHH)
VHH: B19 VHH with S35Y, N76D
B22: SD3002 (VHH)
VHH: B19 VHH with S35Y
B23: SD3069 (VHH)
VHH: EVQLVESGGGLVQPGGSLRLSCAISGLSLDTYAVGWFRQAPGKEREGITCISSGHGMTYYADSVKGRFTVSTDNSKNTLYLQMNSLRAEDTAVYYCATESRYYCSDNWPAPQRYIYWGQGTLVTVSS
B24: SD3070 (VHH)
VHH: B23 VHH with M57I
B25: SD3071 (VHH)
VHH: B23 VHH with M57L
B26: SD3007 (VHH)
VHH: EVQLLESGGGLVQPGGSLRLSCAASGFTLENKAIGWFRQAPGKEREGVSCISKSGSWTYYADSVKGRFTISRDNSKNTVYLQMNSLRAEDTAVYYCATTTAGGGLCWDGTTFSRLASSWGQGTQVTVSS
B27: SD3011 (VHH)
VHH: B26 VHH with S49L
B28: SD3008 (VHH)
VHH: B26 VHH with A88P
B29: SD3010 (VHH)
VHH: B26 VHH with S49L, V79L
B30: SD3012 (VHH)
VHH: B26 VHH with S49L, A88P
B31: SD3009 (VHH)
VHH: B26 VHH with I34M, G35S, S49L, V79L
B32: SD3086 (VHH)
VHH: B19 VHH with S35Y, L37V, Q111L
B33: SD3088 (VHH)
VHH: B26 VHH with S49L, V79L, Q124L
B34: SD3041 (VHH)
VHH: EVQLVESGGGLVQPGGSLRLSCAASGRTLSIYSMSWFRQAPGKEREFVSAIGWNSGRTYYADSVKGRFTISRDNSKNTLYLQMNSLRAEDTAVYYCAAAKGPLRLSSQADYWGQGTQVTVSS
B35: SD3043 (VHH)
VHH: B34 VHH with S49A, A50T
B36: SD3042 (VHH)
VHH: B34 VHH with A50T

target: hemagglutinin (HA) of influenza B/Harbin/7/94 (Yamagata) (influenza B virus); experiment: cell-based or functional assay

| Binder | VNA IC50 [nM] |
| --- | --- |
| B1 | > 1000 |
| B2 | > 1000 |
| B3 | > 1000 |
| B4 | > 1000 |
| B5 | > 1000 |
| B6 | > 1000 |
| B7 | > 1000 |
| B8 | > 1000 |
| B9 | > 1000 |
| B10 | > 1000 |
| B11 | > 1000 |
| B12 | > 1000 |
| B13 | > 1000 |
| B14 | > 1000 |
| B15 | > 1000 |
| B16 | > 1000 |

| Binder | VNA IC50 [nM] |
| --- | --- |
| B17 | > 1000 |
| B18 | > 1000 |
| B19 | > 1000 |
| B20 | > 1000 |
| B21 | 101 |
| B22 | 137 |
| B23 | > 1000 |
| B24 | > 1000 |
| B25 | > 1000 |
| B26 | > 1000 |
| B27 | 96 |
| B28 | > 1000 |
| B29 | 173 |
| B30 | 78 |
| B31 | 516 |

target: hemagglutinin (HA) of influenza B/Lee/40 (Old) (influenza B virus) (UniProt P03460); experiment: cell-based or functional assay
Sequence (P03460 16-584 limits assumed): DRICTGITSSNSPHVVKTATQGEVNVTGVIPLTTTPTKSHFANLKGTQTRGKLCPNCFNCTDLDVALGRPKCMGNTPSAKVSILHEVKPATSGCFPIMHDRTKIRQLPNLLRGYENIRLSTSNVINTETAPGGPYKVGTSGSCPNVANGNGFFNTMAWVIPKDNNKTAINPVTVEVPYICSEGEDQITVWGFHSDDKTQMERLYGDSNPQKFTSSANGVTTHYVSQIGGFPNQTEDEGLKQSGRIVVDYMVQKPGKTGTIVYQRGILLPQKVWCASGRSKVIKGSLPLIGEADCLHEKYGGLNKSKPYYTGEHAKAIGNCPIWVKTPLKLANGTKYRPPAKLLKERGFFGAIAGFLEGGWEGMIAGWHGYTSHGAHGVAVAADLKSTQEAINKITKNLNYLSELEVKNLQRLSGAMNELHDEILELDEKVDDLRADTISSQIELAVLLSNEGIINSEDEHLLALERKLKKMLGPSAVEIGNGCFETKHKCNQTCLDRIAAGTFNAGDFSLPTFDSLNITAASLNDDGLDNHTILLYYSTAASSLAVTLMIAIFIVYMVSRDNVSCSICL

| Binder | VNA IC50 [nM] |
| --- | --- |
| B2 | 42 |
| B3 | > 1000 |
| B4 | 318 |
| B6 | > 1000 |
| B8 | > 1000 |
| B10 | 59 |
| B13 | > 1000 |
| B15 | > 1000 |
| B17 | > 1000 |
| B18 | > 1000 |
| B19 | > 1000 |
| B20 | > 1000 |
| B21 | > 1000 |
| B32 | > 1000 |
| B22 | > 1000 |
| B23 | 67 |
| B24 | > 1000 |
| B25 | > 1000 |
| B26 | > 1000 |
| B27 | 59 |
| B33 | 127 |
| B28 | > 1000 |
| B29 | 227 |
| B30 | 60 |
| B31 | 372 |

target: hemagglutinin (HA) of influenza A/New York/107/03 (PR8) (influenza A virus A/New York/107/03 (PR8)); experiment: cell-based or functional assay

| Binder | VNA IC50 [nM] |
| --- | --- |
| B34 | > 1000 |
| B35 | > 1000 |
| B36 | > 1000 |
